According to PMC4072508, “Genome-Wide Prediction and Validation of Peptides That Bind Human Prosurvival Bcl-2 Proteins” (PLoS Computational Biology, 2014):
Where “and” joins values, the source holds several entries; their conditions need not be identical. Equal entries are not always repeated.

Experiments:
Bcl-xL = Bcl-xL (UniProt Q07817); assay: peptide SPOT array, c-Myc-tagged receptor at 1 uM or 100 nM, anti-c-Myc-Cy3
Mcl-1 [1] = molecular target: Mcl-1 (UniProt Q07820); assay: as above
Target sequence in this assay (Q07820 172-327): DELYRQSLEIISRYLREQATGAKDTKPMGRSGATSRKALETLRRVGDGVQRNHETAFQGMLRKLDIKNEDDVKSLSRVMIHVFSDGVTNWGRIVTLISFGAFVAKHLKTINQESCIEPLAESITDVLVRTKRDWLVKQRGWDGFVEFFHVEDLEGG

Bfl-1 [2] = molecular target: Bfl-1 (UniProt Q16548); assay: as above
Target sequence in this assay (Q16548 1-151): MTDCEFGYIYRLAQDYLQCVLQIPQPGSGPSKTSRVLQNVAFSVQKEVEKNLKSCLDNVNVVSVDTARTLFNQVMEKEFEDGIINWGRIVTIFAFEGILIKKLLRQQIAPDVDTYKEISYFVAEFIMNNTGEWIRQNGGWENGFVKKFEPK

Bcl-w = Bcl-w (UniProt Q92843); assay: as above
Bcl-2 [3] = molecular target: Bcl-2 (UniProt P10415); assay: as above
Target sequence in this assay (P10415 1-217): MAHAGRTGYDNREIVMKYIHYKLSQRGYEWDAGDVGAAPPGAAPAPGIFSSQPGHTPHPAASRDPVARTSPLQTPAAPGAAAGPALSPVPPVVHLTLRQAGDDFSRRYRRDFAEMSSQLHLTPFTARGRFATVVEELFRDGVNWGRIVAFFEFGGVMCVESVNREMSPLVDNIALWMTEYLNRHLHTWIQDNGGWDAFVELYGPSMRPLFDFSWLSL

Mcl-1 [4] = molecular target: Mcl-1 (UniProt Q07820); details: cited from earlier work
Target sequence in this assay (Q07820 whole entry): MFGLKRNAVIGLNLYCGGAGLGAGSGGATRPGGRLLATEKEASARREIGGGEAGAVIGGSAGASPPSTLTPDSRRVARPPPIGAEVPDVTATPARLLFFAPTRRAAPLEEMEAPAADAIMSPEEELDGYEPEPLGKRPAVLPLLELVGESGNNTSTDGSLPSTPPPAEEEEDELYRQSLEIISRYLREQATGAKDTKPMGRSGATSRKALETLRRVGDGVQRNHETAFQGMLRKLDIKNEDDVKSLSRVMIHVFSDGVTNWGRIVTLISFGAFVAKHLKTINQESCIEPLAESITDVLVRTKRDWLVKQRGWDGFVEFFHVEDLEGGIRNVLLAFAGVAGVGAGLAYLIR

Bfl-1 [5] = molecular target: Bfl-1 (UniProt Q16548); details: cited from earlier work
Target sequence in this assay (Q16548 whole entry): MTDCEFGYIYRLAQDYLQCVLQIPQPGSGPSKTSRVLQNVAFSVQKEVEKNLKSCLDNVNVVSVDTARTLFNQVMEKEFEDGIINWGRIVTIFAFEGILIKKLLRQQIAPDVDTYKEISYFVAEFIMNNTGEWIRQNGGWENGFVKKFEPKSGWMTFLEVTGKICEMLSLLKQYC

[6] = molecular target: PXT1 BH3-like peptide (human); assay: fluorescence polarisation; direct binding: 10 nM FAM-labeled peptide, receptor serially diluted; 25°C; 20 mM NaPO4, 50 mM NaCl, 1 mM EDTA, 0.001% Triton X, pH 7.8; single-site binding model
[7] = molecular target: peptide based on the putative BH3 motif in Aven (human); assay: peptide or protein array; peptide SPOT arrays on nitrocellulose membranes; 1 µM or 100 nM c-Myc-tagged receptor in TBS (50 mM Tris, pH 8.1, 100 mM NaCl, 0.01% Triton X-100), 1 h, room temperature; detected with anti-c-myc-Cy3; signal given as percent of the Bim BH3 signal
Bcl-2 [8] = molecular target: Bcl-2 (UniProt P10415); assay: fluorescence polarisation; binding assay in solution; direct or competition not told for this peptide (MRPL41 was unlabeled in Figure S2)
Target sequence in this assay (P10415 whole entry): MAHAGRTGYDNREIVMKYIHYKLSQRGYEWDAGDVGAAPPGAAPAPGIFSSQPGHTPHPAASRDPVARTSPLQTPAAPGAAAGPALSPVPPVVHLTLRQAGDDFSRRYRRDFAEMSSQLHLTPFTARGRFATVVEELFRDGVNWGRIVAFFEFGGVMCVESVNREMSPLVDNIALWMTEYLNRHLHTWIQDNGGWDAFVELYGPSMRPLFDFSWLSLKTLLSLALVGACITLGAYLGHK

Sequence of TSC2 (chain, as listed by the source): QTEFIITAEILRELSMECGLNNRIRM
Sequence of Bcl-xL (UniProt Q07817) (Q07817 1-209): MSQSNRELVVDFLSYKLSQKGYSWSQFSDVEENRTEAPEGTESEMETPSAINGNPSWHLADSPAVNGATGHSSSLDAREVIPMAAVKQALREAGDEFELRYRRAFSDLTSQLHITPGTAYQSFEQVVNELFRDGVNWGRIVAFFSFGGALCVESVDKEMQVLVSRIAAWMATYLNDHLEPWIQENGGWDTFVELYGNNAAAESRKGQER
Sequence of BCL2L15 (chain, as listed by the source): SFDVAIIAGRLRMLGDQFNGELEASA
Sequence of Bcl-xL (from UniProt Q07817-1 1-233) (natural protein) (Q07817 whole entry): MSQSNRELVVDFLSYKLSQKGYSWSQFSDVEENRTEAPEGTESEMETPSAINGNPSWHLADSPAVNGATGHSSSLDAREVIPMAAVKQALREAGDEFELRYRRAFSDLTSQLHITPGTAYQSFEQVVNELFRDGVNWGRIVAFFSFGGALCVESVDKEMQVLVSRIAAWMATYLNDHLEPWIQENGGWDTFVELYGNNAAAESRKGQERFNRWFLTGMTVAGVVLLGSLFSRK
Sequence of Bcl-w (Q92843 1-164 Q133R): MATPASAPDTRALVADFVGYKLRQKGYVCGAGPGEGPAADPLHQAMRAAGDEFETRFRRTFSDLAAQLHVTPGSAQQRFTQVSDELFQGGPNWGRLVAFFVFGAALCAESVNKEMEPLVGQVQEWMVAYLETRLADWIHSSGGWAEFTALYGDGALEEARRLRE
Sequence of Bad BH3 peptide BH3 (Q92934 103-127): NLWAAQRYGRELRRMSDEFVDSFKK
Sequence of PSMB1 (chain, as listed by the source): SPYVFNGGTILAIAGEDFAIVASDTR
Sequence of ATP2B1 (chain, as listed by the source): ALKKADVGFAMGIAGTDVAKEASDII
Sequence of EHMT1 (chain, as listed by the source): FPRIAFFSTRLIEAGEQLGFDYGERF
Sequence of PACSIN2 (chain, as listed by the source): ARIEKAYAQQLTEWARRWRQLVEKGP
Sequence of GRIN2D (chain, as listed by the source): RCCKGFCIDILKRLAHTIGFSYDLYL
Sequence of ARPC5L (chain, as listed by the source): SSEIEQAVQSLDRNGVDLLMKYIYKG
Sequence of EIF2C3 (chain, as listed by the source): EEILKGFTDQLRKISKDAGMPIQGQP
Sequence of Bcl-2 (from UniProt P10415 1-239) (natural protein) (P10415 whole entry): as the sequence (P10415 whole entry) above
Sequence of Mcl-1 (from UniProt Q07820 1-350) (natural protein) (Q07820 whole entry): as the sequence (Q07820 whole entry) above
Sequence of GRIN3A (chain, as listed by the source): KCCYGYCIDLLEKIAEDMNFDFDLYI
Sequence of C7orf16 (chain, as listed by the source): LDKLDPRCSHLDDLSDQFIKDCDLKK
Sequence of EIF2C1 (chain, as listed by the source): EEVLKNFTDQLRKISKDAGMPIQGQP
Sequence of MYO3A (chain, as listed by the source): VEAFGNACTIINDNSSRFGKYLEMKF

Row | Substance | SPOT signal as a fraction of Bim BH3's signal on the same receptor and array (Bcl-xL) | SPOT signal as a fraction of Bim BH3's signal on the same receptor and array (Mcl-1 [1]) | other results
1 | ARPC5 | 0.03 |  | 
2 | BCL2L15 |  |  | SPOT signal as a fraction of Bim BH3's signal on the same receptor and array (Bfl-1 [2]): 0.52; SPOT signal as a fraction of Bim BH3's signal on the same receptor and array (Bcl-w): 0.58; SPOT signal as a fraction of Bim BH3's signal on the same receptor and array (Bcl-2 [3]): 0.75
3 | Bad BH3 peptide BH3 (from UniProt Q92934) |  |  | Kd (Mcl-1 [4]): > 2500 nM; Kd (Bfl-1 [5]): > 2500 nM
4 | Bcl-2 (from UniProt P10415 1-239) (natural protein) |  |  | Kd [6]: < 30 nM
5 | Bcl-xL (from UniProt Q07817-1 1-233) (natural protein) |  |  | Kd [6]: < 30 nM; percent of the Bim BH3 SPOT signal [7]: 11%
6 | C7orf16 | 0.02 |  | 
7 | CYP2A13 | 0.06 and 0.07 | 0.04 and 0.05 | SPOT signal as a fraction of Bim BH3's signal on the same receptor and array (Bfl-1 [2]): 0.04
8 | EIF2C1 | 0.02 |  | 
9 | EIF2C3 | 0.03 |  | 
10 | GRIN2D |  | 0.06 | 
11 | KIF5C |  | 0.07 and 0.16 | 
12 | MRPL41 BH3-like peptide |  |  | Kd (Bcl-2 [8]): 190 nM
13 | MYO3A |  | 0.13 | 
14 | Mcl-1 (from UniProt Q07820 1-350) (natural protein) |  |  | Kd [6]: < 30 nM
15 | PACSIN2 | 0.24 |  | 
16 | PSMB1 | 0.02 | 0.02 | 
17 | RPL29 | 0.72 and 0.7 |  | 
18 | TAF6 |  | 0.03 | 
19 | TRIO | 0.06 | 0.04 | SPOT signal as a fraction of Bim BH3's signal on the same receptor and array (Bfl-1 [2]): 0.04 and 0.05

Second part, led by results:

Row | SPOT signal as a fraction of Bim BH3's signal on the same receptor and array (Bcl-xL) | SPOT signal as a fraction of Bim BH3's signal on the same receptor and array (Mcl-1 [1]) | Substance | other results
20 | 0.03 |  | ARPC5L | 
21 | 0.02 | 0.01 | ATP2B1 | 
22 |  | 0.02 | C9orf84 | 
23 | 0.02 | 0.02 | CHAF1B | 
24 | 0.04 |  | EHMT1 | 
25 |  | 0.03 | GRIN3A | 
26 | 0.56 and 0.38 |  | HRK | SPOT signal as a fraction of Bim BH3's signal on the same receptor and array (Bfl-1 [2]): 0.23 and 0.32
27 | 0.1 | 0.03 and 0.04 | SYN1 | SPOT signal as a fraction of Bim BH3's signal on the same receptor and array (Bfl-1 [2]): 0.04
28 | 0.15 | 0.06 | TSC2 | SPOT signal as a fraction of Bim BH3's signal on the same receptor and array (Bfl-1 [2]): 0.03; SPOT signal as a fraction of Bim BH3's signal on the same receptor and array (Bcl-w): 0.03; SPOT signal as a fraction of Bim BH3's signal on the same receptor and array (Bcl-2 [3]): 0.01
29 | 0.02 and 0.01 | 0.02 | VPS29 | 
